According to patent US20250361322A1 (ICONIC THERAPEUTICS, published 2025):

Columns and labels:
Assay in all cases: cell-based or functional assay
Relipidated TF [1] = target: Relipidated TF (UniProt P13726 33-295, limits assumed)
[2] = target: human Tissue Factor (hTF) (human, UniProt P13726 33-295)
Relipidated TF [3] = target: Relipidated TF
Relipidated TF [4] = target: Relipidated TF (UniProt P13726 33-295, limits assumed); remark: listed apart in the source

Binder | IC50, cell viability of A431 cells, Secondary ADC (antibody with anti-human Fc Fab:MMAF), Continuous (FIG. 18B) [2] | % ETP, TGA with 10 min antibody pre-incubation, 10 nM antibody (Relipidated TF [3]) | % Peak IIa, TGA with 10 min antibody pre-incubation, 10 nM antibody (Relipidated TF [3]) | % Peak IIa, TGA with 10 min antibody pre-incubation, 50 nM antibody (Relipidated TF [3]) | % Peak IIa, TGA with 10 min antibody pre-incubation, 100 nM antibody (Relipidated TF [3]) | % ttPeak, TGA with 10 min antibody pre-incubation, 10 nM antibody (Relipidated TF [3]) | % ttPeak, TGA with 10 min antibody pre-incubation, 50 nM antibody (Relipidated TF [3]) | ETP, TGA with 10 min antibody pre-incubation, 10 nM antibody (Relipidated TF [3]) | Lag Time, TGA with 10 min antibody pre-incubation, 10 nM antibody (Relipidated TF [3]) | Lag Time, TGA with 10 min antibody pre-incubation, 50 nM antibody (Relipidated TF [3]) | Lag Time, TGA with 10 min antibody pre-incubation, 100 nM antibody (Relipidated TF [3]) | Peak IIa, TGA with 10 min antibody pre-incubation, 10 nM antibody (Relipidated TF [3]) | Peak IIa, TGA with 10 min antibody pre-incubation, 50 nM antibody (Relipidated TF [3]) | Peak IIa, TGA with 10 min antibody pre-incubation, 100 nM antibody (Relipidated TF [3]) | ttPeak, TGA with 10 min antibody pre-incubation, 10 nM antibody (Relipidated TF [3]) | ttPeak, TGA with 10 min antibody pre-incubation, 50 nM antibody (Relipidated TF [3]) | ttPeak, TGA with 10 min antibody pre-incubation, 100 nM antibody (Relipidated TF [3]) | % ttPeak, TGA with 10 min antibody pre-incubation, 100 nM antibody (Relipidated TF [3]) | also measured
43B1 (antibody, IgG1, V domains shown) VH: QVQLQESGPGLVKPSQTLSLTCTVSGGSISSGQYWSWIRQHPGKGLEWIGEIYYSGSTRYNPSLKSRVTISVDTSKNQFSLKLSSVTAADTAVYYCARDAPYYYGGGYYYYMDVWGKGTTVTVSS VL: EIVLTQSPGTLSLSPGERATLSCRASESVDSSYLAWYQQKPGQAPRLLIYGASTRQTGIPDRFSGSGSGTDFTLTISRLEPEDFAVYYCQQAGVVPYTFGGGTKVEIK |  |  |  |  |  |  |  |  |  |  |  |  |  |  |  |  |  |  | % Peak IIa, Ab conc. 10 nM (Relipidated TF [1]): 89%; % Peak IIa, Ab conc. 50 nM (Relipidated TF [1]): 72%; % ttPeak, Ab conc. 10 nM (Relipidated TF [1]): 9%; % ttPeak, Ab conc. 50 nM (Relipidated TF [1]): 29%; % ttPeak, Ab conc. 100 nM (Relipidated TF [1]): 37%
anti-TF antibody 43Ea (antibody, human IgG1, V domains shown) VH: QVQLQESGPGLVKPSQTLSLTCTVSGGSISSGQYWSWIRQHPGKGLEWIGEIYYSGSTRYNPSLKSRVTISVDTSKNQFSLKLSSVTAADTAVYYCARDTPYYYDGGYYYYMDVWGKGTTVTVSS VL: EIVLTQSPGTLSLSPGERATLSCRASQSVSSSYLAWYQQKPGQAPRLLIYGASSRATGIPDRFSGSGSGTDFTLTISRLEPEDFAVYYCQQVGVVPYTFGGGTKVEIK | 0.13 nM |  |  |  |  |  |  |  |  |  |  |  |  |  |  |  |  |  | 
anti-TF antibody 43B1 (antibody, human IgG1, V domains shown) VH: QVQLQESGPGLVKPSQTLSLTCTVSGGSISSGQYWSWIRQHPGKGLEWIGEIYYSGSTRYNPSLKSRVTISVDTSKNQFSLKLSSVTAADTAVYYCARDAPYYYGGGYYYYMDVWGKGTTVTVSS VL: EIVLTQSPGTLSLSPGERATLSCRASESVDSSYLAWYQQKPGQAPRLLIYGASTRQTGIPDRFSGSGSGTDFTLTISRLEPEDFAVYYCQQAGVVPYTFGGGTKVEIK | 0.12 nM |  |  |  |  |  |  |  |  |  |  |  |  |  |  |  |  |  | 
anti-TF antibody 54E (antibody, human IgG1, V domains shown) VH: QVQLVQSGAEVKKPGASVKVSCKASGYTFANYYMHWVRQAPGQGLEWMGIINPSGGITVYAQKFQGRVTMTRDTSTSTVYMELSSLRSEDTAVYYCARGGSKVAALAFDIWGQGTMVTVSS VL: DIQMTQSPSSLSASVGDRVTITCQASQDISNSLNWYQQKPGKAPKLLIYDASNLETGVPSRFSGSRSGTDFTFTISSLQPEDIATYYCQQYNFHPLTFGGGTKVEIK | 0.11 nM | 83% | 43% | 16% | 13% | 96% | 303% | 1520 nM·min | 6.5 min | 18.3 min | 22.3 min | 121 nM | 44 nM | 37 nM | 13.7 min | 28.2 min | 33 min |  | 
anti-TF antibody 1F (antibody, human IgG1, V domains shown) VH: EVQLLESGGGLVQPGGSLRLSCAASGFTFSDYAMGWVRQAPGKGLEWVSTISGSGGLTYYADSVKGRFTISRDNSKNTLYLQMNSLRAEDTAVYYCAKAPYGYYMDVWGKGTTVTVSS VL: not shown | 0.07 nM | 41% | 16% | 8% | 7% | 220% | 433% | 742 nM·min | 13.8 min | 26.5 min | 29.5 min | 44 nM | 23 nM | 20 nM | 22.4 min | 37.3 min | 40.8 min | 483% | 
anti-TF antibody 29E (antibody, human IgG1, V domains shown) VH: QVQLVESGGGVVQPGRSLRLSCAASGFTFRSYGMHWVRQAPGKGLEWVAVITYDGINKYYADSVEGRFTISRDNSKNTLYLQMNSLRAEDTAVYYCARDGVYYGVYDYWGQGTLVTVSS VL: not shown | 0.1 nM | 77% | 36% | 30% | 28% | 159% | 237% | 1410 nM·min | 9.4 min | 14.1 min | 14.7 min | 98 nM | 83 nM | 76 nM | 18.1 min | 23.6 min | 24.3 min | 247% | % ETP, TGA with 10 min antibody pre-incubation, 50 nM antibody (Relipidated TF [3]): 72%; % ETP, TGA with 10 min antibody pre-incubation, 100 nM antibody (Relipidated TF [3]): 66%; ETP, TGA with 10 min antibody pre-incubation, 50 nM antibody (Relipidated TF [3]): 1300 nM·min; ETP, TGA with 10 min antibody pre-incubation, 100 nM antibody (Relipidated TF [3]): 1200 nM·min
anti-TF antibody 39A (antibody, human IgG1, V domains shown) VH: QVQLVQSGAEVKKPGSSVKVSCKASGGTFSSNAIGWVRQAPGQGLEWMGSIIPIIGFANYAQKFQGRVTITADESTSTAYMELSSLRSEDTAVYYCARDSGYYYGASSFGMDVWGQGTTVTVSS VL: EIVMTQSPATLSVSPGERATLSCRASQSVSSNLAWYQQKPGQAPRLLIYGASTRATGIPARFSGSGSGTEFTLTISSLQSEDFAVYYCEQYNNLPLTFGGGTKVEIK | 0.08 nM | 0% | 13% | 8% | 7% | 319% | 491% |  | 19.6 min | 30.7 min | 33.6 min | 36 nM | 22 nM | 19 nM | 29.3 min | 41.4 min | 44.6 min | 537% | 
39A (antibody, IgG1, V domains shown) VH: QVQLVQSGAEVKKPGSSVKVSCKASGGTFSSNAIGWVRQAPGQGLEWMGSIIPIIGFANYAQKFQGRVTITADESTSTAYMELSSLRSEDTAVYYCARDSGYYYGASSFGMDVWGQGTTVTVSS VL: EIVMTQSPATLSVSPGERATLSCRASQSVSSNLAWYQQKPGQAPRLLIYGASTRATGIPARFSGSGSGTEFTLTISSLQSEDFAVYYCEQYNNLPLTFGGGTKVEIK |  |  |  |  |  |  |  |  |  |  |  |  |  |  |  |  |  |  | % ETP, Ab conc. 10 nM (Relipidated TF [1]): 84%; % Peak IIa, Ab conc. 10 nM (Relipidated TF [1]): 37%; % Peak IIa, Ab conc. 50 nM (Relipidated TF [1]): 11%; % Peak IIa, Ab conc. 100 nM (Relipidated TF [1]): 9%; % ttPeak, Ab conc. 10 nM (Relipidated TF [1]): 135%; % ttPeak, Ab conc. 50 nM (Relipidated TF [1]): 397%; % ttPeak, Ab conc. 100 nM (Relipidated TF [1]): 465%
25A5 (antibody, human IgG1, V domains shown) VH: QVQLVQSGAEVKKPGASVKVSCKASGYTFDVYGISWVRQAPGQGLEWMGWIAPYSGNTNYAQKLQGRVTMTTDTSTSTAYMELRSLRSDDTAVYYCARDAGTYSPFGYGMDVWGQGTTVTVSS VL: DIQMTQSPSTLSASVGDRVTITCRASESISNWLAWYQQKPGKAPKLLIYKAYSLEYGVPSRFSGSGSGTEFTLTISSLQPDDFATYYCQQFQKLPPFTFGGGTKVEIK |  |  |  |  |  |  |  |  |  |  |  |  |  |  |  |  |  |  | % ETP at 10 nM Ab (TGA without antibody pre-incubation) (Relipidated TF [4]): 99%; % Peak IIa at 10 nM Ab (TGA without antibody pre-incubation) (Relipidated TF [4]): 98%; % Peak IIa at 50 nM Ab (TGA without antibody pre-incubation) (Relipidated TF [4]): 98%; % Peak IIa at 100 nM Ab (TGA without antibody pre-incubation) (Relipidated TF [4]): 98%; ETP at 10 nM Ab (TGA without antibody pre-incubation) (Relipidated TF [4]): 2270 nM·min; ETP at 50 nM Ab (TGA without antibody pre-incubation) (Relipidated TF [4]): 2320 nM·min; ETP at 100 nM Ab (TGA without antibody pre-incubation) (Relipidated TF [4]): 2390 nM·min; Lag Time at 10 nM Ab (TGA without antibody pre-incubation) (Relipidated TF [4]): 4.7 min; Lag Time at 50 nM Ab (TGA without antibody pre-incubation) (Relipidated TF [4]): 4.8 min; Lag Time at 100 nM Ab (TGA without antibody pre-incubation) (Relipidated TF [4]): 5.1 min; Peak IIa at 10 nM Ab (TGA without antibody pre-incubation) (Relipidated TF [4]): 343 nM; Peak IIa at 50 nM Ab (TGA without antibody pre-incubation) (Relipidated TF [4]): 344 nM; Peak IIa at 100 nM Ab (TGA without antibody pre-incubation) (Relipidated TF [4]): 342 nM; ttPeak at 10 nM Ab (TGA without antibody pre-incubation) (Relipidated TF [4]): 8 min; ttPeak at 50 nM Ab (TGA without antibody pre-incubation) (Relipidated TF [4]): 8.1 min; ttPeak at 100 nM Ab (TGA without antibody pre-incubation) (Relipidated TF [4]): 8.5 min
